The source of these data is article PMC5716189 (Nucleic Acids Research, 2017).

What all share (settings): both partners purified
The target of experiment [1] is T1, APLF FHA domain (forkhead-associated domain of aprataxin and PNKP-like factor) (human, UniProt Q8IW19 1-105).
T1 sequence: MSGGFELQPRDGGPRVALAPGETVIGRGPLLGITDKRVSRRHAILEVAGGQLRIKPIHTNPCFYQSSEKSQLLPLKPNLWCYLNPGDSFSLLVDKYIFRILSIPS
The experiment is described as follows: NMR titration; 2D 1H,15N-HSQC of 0.1 mM U-[15N] APLF-FHA as a function of phosphopeptide concentration (0–800 μM); 25 mM HEPES, 25 mM MES, 150 mM NaCl, 1 mM EDTA, pH 7.4; 35°C; lineshape simulation (two-site exchange) for Kd and τB of the 18-residue peptide.

The target in experiment [2] is T1, APLF FHA domain (forkhead-associated …). The experiment is described as follows: crystal structure; sitting drop vapor diffusion, 20°C; APLF FHA 9–10 mg/ml with peptide at a 1:1 peptide:protein ratio.
Experiment [3] has the same target. The experiment is described as follows: NMR titration; 2D 1H,15N-HSQC of 0.1 mM U-[15N] APLF-FHA as a function of phosphopeptide concentration (0–800 μM); 25 mM HEPES, 25 mM MES, 150 mM NaCl, 1 mM EDTA, pH 7.4; 35°C; lineshape simulation (two-site exchange) for Kd and τB of the 18-residue peptide. This is another data set of the same source.
Experiment [4] shares this target. The experiment is described as follows: fluorescence polarisation; pH 7.4; apparent dissociation constants; FITC-Gly-Gly-labelled peptide with APLF FHA; 25 mM HEPES, 25 mM MES, 150 mM NaCl, 1 mM EDTA, 2 mM DTT, 0.05% Tween 20; room temperature; single-site fit.
The target is the same in experiment [5]. The experiment is described as follows: fluorescence polarisation; pH 6.0; apparent dissociation constants; FITC-Gly-Gly-labelled peptide with APLF FHA; 25 mM HEPES, 25 mM MES, 150 mM NaCl, 1 mM EDTA, 2 mM DTT, 0.05% Tween 20; room temperature; single-site fit.
Experiment [6] shares this target. Kind of experiment: fluorescence polarisation; pH 6.5; apparent dissociation constants; FITC-Gly-Gly-labelled peptide with APLF FHA; 25 mM HEPES, 25 mM MES, 150 mM NaCl, 1 mM EDTA, 2 mM DTT, 0.05% Tween 20; room temperature; single-site fit.
For experiment [7] the target is unchanged. The experiment is described as follows: fluorescence polarisation; pH 5.5; apparent dissociation constants; FITC-Gly-Gly-labelled peptide with APLF FHA; 25 mM HEPES, 25 mM MES, 150 mM NaCl, 1 mM EDTA, 2 mM DTT, 0.05% Tween 20; room temperature; single-site fit.
Experiment [8] has the same target. The experiment is described as follows: fluorescence polarisation; pH 7.0; apparent dissociation constants; FITC-Gly-Gly-labelled peptide with APLF FHA; 25 mM HEPES, 25 mM MES, 150 mM NaCl, 1 mM EDTA, 2 mM DTT, 0.05% Tween 20; room temperature; single-site fit.

Square brackets hold non-standard residues; d marks the D form. Ends that are not written are not given here. * marks the point of attachment. FITC = O=C1OC2(c3ccc(O)cc3Oc3cc(O)ccc32)c2ccc(NC(=S)*)cc21; pT = C[C@@H](OP(=O)(O)O)[C@H](N)C(=O)O; pS = N[C@@H](COP(=O)(O)O)C(=O)O

On to PYAG[pS][pT]DEN [XRCC1_(pSpT-9) diphosphopeptide], for which the Kd in experiment [1] was 80000 nM. For the molecule PYAGE[pT]DEN [XRCC1_(EpT-9) monophosphopeptide], in experiment [2], the binding result is “binds”. In the case of DPYAG[pS][pT]DENTDSEEHQE [XRCC1_(pSpT-18) diphosphopeptide, unlabelled (NMR studies)], the Kd in experiment [3] is 4000 nM. As for {FITC}-GGDPYAG[pS][pT]DENEDEEEHQE [FITC-Gly-Gly-XRCC1_(pSpTEE-18) diphosphopeptide], the Kd in experiment [4] stood at 300 ± 70 nM. As to {FITC}-GGQEENGEDPYAG[pS][pT]DENTDSEEHQE [FITC-Gly-Gly-XRCC1_(pSpT-24) diphosphopeptide], the Kd in experiment [5] is 3650 ± 910 nM; in experiment [6] it was 320 ± 90 nM; in experiment [7], 6650 ± 2350 nM; in experiment [4] it was 160 ± 20 nM; in experiment [8], 200 ± 30 nM.
